Sequences and labels used below:
B1: SMTNL2 (parent)
chain: ETAAGKGKGEARARLKRSQSFGVA
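Further: lentivirally expressed fusions sorted by FACS into six bins by GFP to DsRed ratio, PSI derived from sequencing read proportions per bin multiplied by bin number.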

This series covers variants of B1. As to the kind of experiment: protein stability index of a GFP-peptide fusion (GPS, HEK-293T) (PSI 1-6); higher = more stable. To be noted: c terminus: a fixed tail appended.
On to ETAAGKGKGEARARLKRSQDFGVA [S20D], for which the protein stability index turned out to be 4.58. For the variant ETAAGKGKGEARARLKRSQLFGVA [S20L], the protein stability index amounted to 4.02. To ETAAGKGKGEARARLKRSQIFGVA [S20I] belongs 3.5; to ETAAGKGKGEARARLKRSQPFGVA [S20P], 4.27. On to ETAAGKGKGEARARLKRSQNFGVA [S20N], for which the protein stability index came to 4.3. To ETAAGKGKGEARARLKRSQTFGVA [S20T] belongs 4.77. As for ETAAGKGKGEARARLKRSQKFGVA [S20K], the figure is 4.69. With ETAAGKGKGEARARLKRSQAFGVA [S20A], the protein stability index worked out at 4.56. As for ETAAGKGKGEARARLKRSQRFGVA [S20R], the figure is 4.09; as for ETAAGKGKGEARARLKRSQCFGVA [S20C], 4.51. Regarding ETAAGKGKGEARARLKRSQGFGVA [S20G], the protein stability index is 3.76.

For the variant ETAAGKGKGEARARLKRSQFFGVA [S20F], the protein stability index was 4.09. For the variant ETAAGKGKGEARARLKRSQYFGVA [S20Y], the protein stability index turned out to be 3.98. To ETAAGKGKGEARARLKRSQHFGVA [S20H] belongs 4.26; to ETAAGKGKGEARARLKRSQWFGVA [S20W], 3.02. ETAAGKGKGEARARLKRSQQFGVA [S20Q]: the protein stability index is 4.08. ETAAGKGKGEARARLKRSQEFGVA [S20E]: the protein stability index was determined as 4.87. As for ETAAGKGKGEARARLKRSQVFGVA [S20V], the figure is 4.27.

With ETAAGKGKGEARARLKRSQMFGVA [S20M], the protein stability index was found to be 4.3. As for ETAAGKGKGEARARLLRSQSFGVA [K16L], the figure is 3.62; as for ETAAGKGKGEARARLDRSQSFGVA [K16D], 4.62. On to ETAAGKGKGEARARLYRSQSFGVA [K16Y], for which the protein stability index stood at 3.74. To ETAAGKGKGEARARLRRSQSFGVA [K16R] belongs 4.4; to ETAAGKGKGEARARLVRSQSFGVA [K16V], 3.9; to ETAAGKGKGEARARLWRSQSFGVA [K16W], 2.59.

In the case of ETAAGKGKGEARARLERSQSFGVA [K16E], the protein stability index was found to be 4.57.

With ETAAGKGKGEARARLPRSQSFGVA [K16P], the protein stability index worked out at 4.03. Consider ETAAGKGKGEARARLSRSQSFGVA [K16S], for which the protein stability index was 4.35. Take ETAAGKGKGEARARLIRSQSFGVA [K16I]: the protein stability index amounted to 3.35. To ETAAGKGKGEARARLQRSQSFGVA [K16Q] belongs 4.21; to ETAAGKGKGEARARLMRSQSFGVA [K16M], 3.83.

For ETAAGKGKGEARARLFRSQSFGVA [K16F], the protein stability index turned out to be 3.89. Turning to ETAAGKGKGEARARLCRSQSFGVA [K16C], the protein stability index stood at 3.77. With ETAAGKGKGEARARLNRSQSFGVA [K16N], the protein stability index worked out at 4.46.

In the case of ETAAGKGKGEARARLTRSQSFGVA [K16T], the protein stability index was found to be 4.39.

Take ETAAGKGKGEARARLHRSQSFGVA [K16H]: the protein stability index stood at 4. As for ETAAGKGKGEARARLGRSQSFGVA [K16G], the figure is 4.67; as for ETAAGKGKGEARARLARSQSFGVA [K16A], 4.

With ETAAGKGKGEARARLKRSQSQGVA [F21Q], the protein stability index is 5.2. Turning to ETAAGKGKGEARARLKRSQSRGVA [F21R], the protein stability index was 4.23.

As to ETAAGKGKGEARARLKRSQSAGVA [F21A], the protein stability index was 5.25. To ETAAGKGKGEARARLKRSQSVGVA [F21V] belongs 5.25. To ETAAGKGKGEARARLKRSQSWGVA [F21W] belongs 3.22; to ETAAGKGKGEARARLKRSQSNGVA [F21N], 5. As to ETAAGKGKGEARARLKRSQSMGVA [F21M], the protein stability index was determined as 4.3. To ETAAGKGKGEARARLKRSQSGGVA [F21G] belongs 4.08; to ETAAGKGKGEARARLKRSQSDGVA [F21D], 5.51; to ETAAGKGKGEARARLKRSQSTGVA [F21T], 5.16. To ETAAGKGKGEARARLKRSQSEGVA [F21E] belongs 5.45. As for ETAAGKGKGEARARLKRSQSSGVA [F21S], the figure is 5.07; as for ETAAGKGKGEARARLKRSQSHGVA [F21H], 4.96; as for ETAAGKGKGEARARLKRSQSKGVA [F21K], 5.23. As to ETAAGKGKGEARARLKRSQSIGVA [F21I], the protein stability index was 5.28. As for ETAAGKGKGEARARLKRSQSPGVA [F21P], the figure is 5.12.

ETAAGKGKGEARARLKRSQSLGVA [F21L]: the protein stability index was 5.02. As for ETAAGKGKGEARARLKRSQSYGVA [F21Y], the figure is 4.65; as for ETAAGKGKGEARARLKRSQSCGVA [F21C], 5.02. As for ETAAGKGKGEARARLKTSQSFGVA [R17T], the figure is 4.17; as for ETAAGKGKGEARARLKYSQSFGVA [R17Y], 3.81. As for ETAAGKGKGEARARLKCSQSFGVA [R17C], the figure is 3.62. In the case of ETAAGKGKGEARARLKVSQSFGVA [R17V], the protein stability index worked out at 3.59. ETAAGKGKGEARARLKKSQSFGVA [R17K]: the protein stability index is 4.6. As for ETAAGKGKGEARARLKESQSFGVA [R17E], the figure is 4.65; as for ETAAGKGKGEARARLKSSQSFGVA [R17S], 4.18; as for ETAAGKGKGEARARLKASQSFGVA [R17A], 4.14. Turning to ETAAGKGKGEARARLKHSQSFGVA [R17H], the protein stability index is 4.54. As to ETAAGKGKGEARARLKQSQSFGVA [R17Q], the protein stability index amounted to 4.67. To ETAAGKGKGEARARLKMSQSFGVA [R17M] belongs 4.09.

Take ETAAGKGKGEARARLKFSQSFGVA [R17F]: the protein stability index turned out to be 3.19. Take ETAAGKGKGEARARLKISQSFGVA [R17I]: the protein stability index amounted to 3.82. To ETAAGKGKGEARARLKGSQSFGVA [R17G] belongs 4.24; to ETAAGKGKGEARARLKDSQSFGVA [R17D], 4.31; to ETAAGKGKGEARARLKWSQSFGVA [R17W], 2.95. As for ETAAGKGKGEARARLKLSQSFGVA [R17L], the figure is 3.76; as for ETAAGKGKGEARARLKNSQSFGVA [R17N], 4.54.

In the case of ETAAGKGKGEARARLKPSQSFGVA [R17P], the protein stability index was found to be 3.23. As for ETAAGKGKGEARARLKRSKSFGVA [Q19K], the figure is 4.46; as for ETAAGKGKGEARARLKRSCSFGVA [Q19C], 4.09; as for ETAAGKGKGEARARLKRSSSFGVA [Q19S], 3.19. Take ETAAGKGKGEARARLKRSMSFGVA [Q19M]: the protein stability index worked out at 4.18. To ETAAGKGKGEARARLKRSASFGVA [Q19A] belongs 4.35; to ETAAGKGKGEARARLKRSDSFGVA [Q19D], 4.61; to ETAAGKGKGEARARLKRSFSFGVA [Q19F], 3.67. To ETAAGKGKGEARARLKRSRSFGVA [Q19R] belongs 4.3; to ETAAGKGKGEARARLKRSVSFGVA [Q19V], 3.96.

For the variant ETAAGKGKGEARARLKRSNSFGVA [Q19N], the protein stability index stood at 4.89. As for ETAAGKGKGEARARLKRSTSFGVA [Q19T], the figure is 4.68; as for ETAAGKGKGEARARLKRSWSFGVA [Q19W], 4.33. To ETAAGKGKGEARARLKRSGSFGVA [Q19G] belongs 4.38; to ETAAGKGKGEARARLKRSHSFGVA [Q19H], 4.81; to ETAAGKGKGEARARLKRSYSFGVA [Q19Y], 3.89. Consider ETAAGKGKGEARARLKRSPSFGVA [Q19P], for which the protein stability index is 4.45. To ETAAGKGKGEARARLKRSESFGVA [Q19E] belongs 5.15. To ETAAGKGKGEARARLKRSLSFGVA [Q19L] belongs 4.08.

These data come from the supplement of paper PMC10567573.
